Experimental data published in the supplement of paper PMC9112550, “Optimization of the antimicrobial peptide Bac7 by deep mutational scanning” (BMC Biology, 2022).

tested on: Escherichia coli TOP10; test: shrunken log2 fold change of peptide-encoding DNA abundance (4.5 h post-induction vs induction); higher = less antimicrobial activity (less host growth inhibition); details: time post-induction: 4.5 h; library: site-saturation at positions 5, 18, 19, 20
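Also: peptides expressed intracellularly from a pBAD plasmid library in pooled LB shake-flask culture, induced with 0.3% L-arabinose, DNA abundance read by NGS, three biological replicates, DESeq2 with apeglm shrinkage.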

Sequence	shrunken log2 fold change
RRIRQRPPRLPRPRPRPVGQPRP	0.0327
RRIRVRPPRLPRPRPRPCVQPRP	0.0444
RRIRKRPPRLPRPRPRPDFDPRP	-0.183
RRIRERPPRLPRPRPRPCRQPRP	-0.157
RRIRRRPPRLPRPRPRPCNCPRP	-0.0759
RRIRHRPPRLPRPRPRPCGPPRP	-0.084
RRIRGRPPRLPRPRPRPWSWPRP	1.1
RRIRLRPPRLPRPRPRPQDQPRP	0.14
RRIRMRPPRLPRPRPRPCYEPRP	0.0712
RRIRHRPPRLPRPRPRPQHQPRP	-0.192
RRIRNRPPRLPRPRPRPSNAPRP	-0.343
RRIRVRPPRLPRPRPRPRFAPRP	0.527
RRIRTRPPRLPRPRPRPTFWPRP	0.467
RRIRKRPPRLPRPRPRPRMAPRP	0.818
RRIRERPPRLPRPRPRPCMSPRP	-0.00711
RRIRQRPPRLPRPRPRPTAWPRP	0.591
RRIRHRPPRLPRPRPRPKPWPRP	0.528
RRIRDRPPRLPRPRPRPFQTPRP	0.0255
RRIRSRPPRLPRPRPRPVIPPRP	-0.156
RRIRKRPPRLPRPRPRPKWVPRP	0.339
RRIRIRPPRLPRPRPRPHEEPRP	-0.031
RRIRIRPPRLPRPRPRPHMKPRP	-0.809
RRIRPRPPRLPRPRPRPISQPRP	-0.0721
RRIRTRPPRLPRPRPRPLTNPRP	-0.0099
RRIRPRPPRLPRPRPRPCTWPRP	0.025

Sequence	shrunken log2 fold change
RRIRQRPPRLPRPRPRPDVTPRP	0.143
RRIRRRPPRLPRPRPRPYEHPRP	-0.0324
RRIRDRPPRLPRPRPRPMQDPRP	-0.0272
RRIRRRPPRLPRPRPRPLCKPRP	0.167
RRIRLRPPRLPRPRPRPFWFPRP	0.0715
RRIRDRPPRLPRPRPRPVNDPRP	-0.163
RRIRYRPPRLPRPRPRPAHDPRP	-1.14
RRIRSRPPRLPRPRPRPRTPPRP	0.502
RRIRTRPPRLPRPRPRPLHGPRP	0.184
RRIRMRPPRLPRPRPRPPPHPRP	1.62
RRIRMRPPRLPRPRPRPWCMPRP	-0.0453
RRIRPRPPRLPRPRPRPVKFPRP	0.184
RRIRQRPPRLPRPRPRPNMFPRP	0.0369
RRIRYRPPRLPRPRPRPGMDPRP	-0.299
RRIRCRPPRLPRPRPRPRMMPRP	-0.11
RRIRSRPPRLPRPRPRPLEGPRP	-0.131
RRIRYRPPRLPRPRPRPRDLPRP	-0.372
RRIRQRPPRLPRPRPRPLDKPRP	2.19
RRIRFRPPRLPRPRPRPPRCPRP	0.612
RRIRTRPPRLPRPRPRPAPRPRP	1.39
RRIRNRPPRLPRPRPRPTNGPRP	-0.0138
RRIRYRPPRLPRPRPRPWFNPRP	-0.0994
RRIRARPPRLPRPRPRPYSLPRP	-0.187
RRIRTRPPRLPRPRPRPQMLPRP	-0.0274
RRIRMRPPRLPRPRPRPFGMPRP	-0.0241

Sequence	shrunken log2 fold change
RRIRTRPPRLPRPRPRPKIVPRP	-0.0543
RRIRDRPPRLPRPRPRPSFQPRP	-0.0455
RRIRWRPPRLPRPRPRPHYWPRP	-0.0704
RRIRRRPPRLPRPRPRPNCFPRP	0.176
RRIRKRPPRLPRPRPRPLDCPRP	-0.0764
RRIRCRPPRLPRPRPRPLEPPRP	0.0773
RRIRCRPPRLPRPRPRPFHSPRP	-0.458
RRIRHRPPRLPRPRPRPQPFPRP	-0.213
RRIRTRPPRLPRPRPRPWIKPRP	-0.231
RRIRKRPPRLPRPRPRPPGLPRP	0.308
RRIRCRPPRLPRPRPRPPLMPRP	0.121
RRIRRRPPRLPRPRPRPFRDPRP	0.506
RRIRFRPPRLPRPRPRPEIWPRP	0.217
RRIRLRPPRLPRPRPRPGGCPRP	0.177
RRIRSRPPRLPRPRPRPPLWPRP	0.704
RRIRRRPPRLPRPRPRPKERPRP	-0.327
RRIRYRPPRLPRPRPRPSLEPRP	-0.0996
RRIRPRPPRLPRPRPRPIPWPRP	0.00327
RRIRRRPPRLPRPRPRPFCHPRP	-0.17
RRIRWRPPRLPRPRPRPGAYPRP	0.109
RRIRVRPPRLPRPRPRPRAAPRP	0.425
RRIRWRPPRLPRPRPRPPSGPRP	0.127
RRIRSRPPRLPRPRPRPENAPRP	-0.231
RRIRRRPPRLPRPRPRPLKPPRP	0.314
RRIRARPPRLPRPRPRPPRWPRP	0.794
